Source: article PMC9329948, “Surface-Enhanced Carboxyphenyl Diazonium Functionalized Screen-Printed Carbon Electrode for the Screening of Tuberculosis in Sputum Samples”

Tests used:
MPT64 antigen [1] = target: T1, MPT64 antigen (Mycobacterium tuberculosis, UniProt P9WIN9 24-228); assay: ELONA; 5 uM aptamer; antigen coated at 5 ug/mL; p < 0.0001 vs control; ELONA: antigen coated in 0.06 M carbonate pH 9.6, 3% BSA block, aptamer 2 h at room temperature, 0.01 M PBS washes; aptamer/electrode binding buffer 20 mM Tris-HCl pH 7.4, 150 mM NaCl, 2 mM MgCl2, 2 mM KCl, 2 mM CaCl2, room temperature; conditions: protein: recombinant; label: biotin
T1 sequence (P9WIN9 24-228): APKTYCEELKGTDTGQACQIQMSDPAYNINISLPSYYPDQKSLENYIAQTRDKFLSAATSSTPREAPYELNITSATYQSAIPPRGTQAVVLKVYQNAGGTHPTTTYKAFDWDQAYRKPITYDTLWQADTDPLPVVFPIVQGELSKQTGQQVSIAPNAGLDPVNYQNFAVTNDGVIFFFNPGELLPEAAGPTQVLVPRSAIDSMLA

CFP10 antigen [2] = target: T2, CFP10 antigen (Mycobacterium tuberculosis, UniProt P9WNK5 2-100); assay: ELONA; no significant difference from aptamer-alone control; ELONA: antigen coated in 0.06 M carbonate pH 9.6, 3% BSA block, aptamer 2 h at room temperature, 0.01 M PBS washes; aptamer/electrode binding buffer 20 mM Tris-HCl pH 7.4, 150 mM NaCl, 2 mM MgCl2, 2 mM KCl, 2 mM CaCl2, room temperature; conditions: protein: recombinant; label: biotin
T2 sequence (P9WNK5 2-100): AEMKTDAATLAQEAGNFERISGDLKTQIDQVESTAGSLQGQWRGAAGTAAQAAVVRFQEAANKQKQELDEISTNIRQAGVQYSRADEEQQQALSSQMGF

CFP10 antigen [3] = target: T2, CFP10 antigen; assay: amperometric sandwich aptasensor; selectivity test; read-out also needs anti-MPT64 antibody; ELONA: antigen coated in 0.06 M carbonate pH 9.6, 3% BSA block, aptamer 2 h at room temperature, 0.01 M PBS washes; aptamer/electrode binding buffer 20 mM Tris-HCl pH 7.4, 150 mM NaCl, 2 mM MgCl2, 2 mM KCl, 2 mM CaCl2, room temperature; conditions: protein: recombinant
MPT64 antigen [4] = target: T1, MPT64 antigen; assay: amperometric sandwich aptasensor; HRP anti-MPT64 antibody detection; LOD 1.11 ng/mL, linear 5-200 ng/mL; ELONA: antigen coated in 0.06 M carbonate pH 9.6, 3% BSA block, aptamer 2 h at room temperature, 0.01 M PBS washes; aptamer/electrode binding buffer 20 mM Tris-HCl pH 7.4, 150 mM NaCl, 2 mM MgCl2, 2 mM KCl, 2 mM CaCl2, room temperature; conditions: protein: recombinant

Row | Binder | binding result (MPT64 antigen [1]) | binding result (CFP10 antigen [2]) | binding result (CFP10 antigen [3]) | binding result (MPT64 antigen [4])
1 | TTTTTTTTTTGGGAGCTGATGTCGCATGGGTTTTGATCACATGA (ssDNA, biotin, position not stated) [MPT64 aptamer, biotinylated (ELONA)] | binds | no binding |  | 
2 | TTTTTTTTTTGGGAGCTGATGTCGCATGGGTTTTGATCACATGA (ssDNA, 5' AmMC6) [MPT64 aptamer, 5'-amino (electrode)] |  |  | no binding | binds
